Patent publication US20040019187A1 (published 2004)

T1: HLA-DR (DRA*0101/DRB1*0401) on the surface of PRIESS cells (human, UniProt P01903 26-254; P01911 30-266)
T1 MHC II alpha: not shown
T1 MHC II beta: not shown


How the values were obtained:
[1] = biological target: HLA-DR on the surface of LG-2 cells (human B-lymphoblastoid cell line) (human); test: cell-based or functional assay
[2] = biological target: T1, HLA-DR (DRA*0101/DRB1*0401) on the …; test: cell-based or functional assay

Binder | EC50 of cell killing (nM) for bivalent agent; LG2 cells; Fab cross-linked with anti-FLAG M2 [1] [nM] | EC50 of cell killing (nM) for bivalent agent; PRIESS cells; Fab cross-linked with anti-FLAG M2 [2] [nM]
MS-GPC-8-27-41 Fab (Fab, V domains shown) VH: QVQLKESGPALVKPTQTLTLTCTFSGFSLSTSGVGVGWIRQPPGKALEWLALIDWDDDKYYSTSLKTRLTISKDTSKNQVVLTMTNMDPVDTATYYCARSPRYRGAFDYWGQGTLVTVSS VL: DIVLTQPPSVSGAPGQRVTISCSGSESNIGNNYVQWYQQLPGTAPKLLIYDNNQRPSGVPDRFSGSKSGTSASLAITGLQSEDEADYYCQSYDMNVHVFGGGTKLTVLG | 7.2 | 7.7
MS-GPC-8-6-2 Fab (Fab, V domains shown) VH: QVQLKESGPALVKPTQTLTLTCTFSGFSLSTSGVGVGWIRQPPGKALEWLALIDWDDDKYYSTSLKTRLTISKDTSKNQVVLTMTNMDPVDTATYYCARSPRYRGAFDYWGQGTLVTVSS VL: DIVLTQPPSVSGAPGQRVTISCSGSESNIGSNYVHWYQQLPGTAPKLLIYDNNQRPSGVPDRFSGSKSGTSASLAITGLQSEDEADYYCQSYDYDHYVFGGGTKLTVLG |  | 8
MS-GPC-8-17 Fab (Fab, V domains shown) VH: QVQLKESGPALVKPTQTLTLTCTFSGFSLSTSGVGVGWIRQPPGKALEWLALIDWDDDKYYSTSLKTRLTISKDTSKNQVVLTMTNMDPVDTATYYCARSPRYRGAFDYWGQGTLVTVSS VL: DIVLTQPPSVSGAPGQRVTISCSGSSSNIGSNYVSWYQQLPGTAPKLLIYDNNQRPSGVPDRFSGSKSGTSASLAITGLQSEDEADYYCQSYDFSVYVFGGGTKLTVLG |  | 16
